Key:
[1] = target: HLA-A*2402 molecule (human); assay: flow cytometry, acid-stripped C1R-A24 cells reconstituted with beta2m and peptide dilutions, stained with mAb 17A12
[2] = target: HLA-A*0206 molecule (human); assay: flow cytometry, RA2.6 (RMAS-HLA-A*0206) stabilisation assay with peptide dilutions, stained with mAb BB7.2
[3] = target: HLA-A*0201 molecule (human); assay: flow cytometry, acid-stripped JY cells reconstituted with beta2m and peptide dilutions, stained with mAb BB7.2

B1: W10 peptide (peptide)
peptide: ALLPAVPSL
modifications: not checked
[1]
  -log Kd: 9.16 -log Kd
[2]
  -log Kd: 7.74 -log Kd
[3]
  -log Kd: 7.84 -log Kd

B2: W302 peptide (peptide)
peptide: RVPGVAPTL
modifications: not checked
[1]
  -log Kd: 7.67 -log Kd
[2]
  -log Kd: 6.61 -log Kd
[3]
  -log Kd: 6.41 -log Kd
